Tests used:
KG1 cells [1] = assay: expression of differentiation antigens CD11b and CD14 after exposure to deltanoids; format: cell-based; details: FIG. 4b
Excerpt: According to the invention, cells from the KG1 acute myeloid leukemia line were used as a model for cells resistant to differentiation mediated by deltanoids. […] Effect on clonal proliferation and differentiation of human myeloid cells. J Clin Invest, 1986. 78: p. […] J Steroid Biochem Mol Biol, 2012. 132(3-5): p. 220-6]. The HL60 acute myeloid leukemia cell line, used in laboratories engaged in studying deltanoid-mediated differentiation, served as a sensitive line model [Marcinkowska, E. et al., Cell differentiating and anti-proliferative activity of side-chain modified analogs of 1,25-dihydroxyvitamin D3. J Steroid Biochem Mol Biol, 1998. 67(1): p. 71-8; Gallagher, R. et al., Characterization of the continuous, differentiating myeloid cell line (HL-60) from a patient with acute promyelocytic leukemia. Blood, 1979. 54: p. 713-733; Brackman, D. et al., Expression of cell surface antigens during the differentiation of HL-60 cells induced by 1,25-dihydroxyvitamin D3, retinoic acid and DMSO. Leuk Res, 1995. 19: p. 57-64].
Studying susceptibility to differentiation mediated by deltanoids is done in a number of ways. One of these is observing the appearance of antigens typical for macrophages on the surface of deltanoid (calcitriol or analogs) treated cells, serving important functions for the macrophages. […]

KG1-CtrA cells [2] = assay: as above; format: cell-based; details: unpublished data
HL60 cells [3] = details: exposure even to low concentrations; cited from earlier work
KG1 cells [4] = details: exposure even to high concentrations; cited from earlier work
HL60 cells [5] = assay: flow cytometry, direct labeling with FITC-labeled scFv; format: binding
Method: (§1) FITC-labeled 6B and 8F antibodies were used to label the HL60, KG1 and KG1-CtrA cells. To this end, 5×10^5 cells of each were suspended in 50 μl of PBS buffer without calcium and magnesium ions with 0.1% BSA. Either 1 μg of the 8F/FITC protein or 1 μg of the 6B/FITC protein were added to each suspension. Samples were incubated for 45 minutes in darkness on ice, then washed with PBS without calcium and magnesium ions, supplemented with 0.1% BSA and subsequently fluorescence of the samples was read by flow cytometry.

KG1 cells [6] = assay: as above; format: binding
Method: as §1

HL60 cells [7] = assay: ELISA on whole cells; format: binding
Excerpt: (§2) Screening the library in order to find antibodies in an scFv format, specifically interacting with the KG1 line, was done based on ELISA according to the Tomlinson protocol (phages with envelope protein fused with scFv after expression on a 96-well plate served as the primary antibody for ELISA). Again, the cells were not immobilized on a Nunc U plate but only centrifuged in mild conditions. The identified positive clones were expressed in the form of solubilized scFv (without fusion with a phage envelope protein) and purified on a protein A resin, and then tested on KG1 cells and HL60 cells obtaining desired results (specificity against KG1 line) (FIG. 1).
At the same time, it was observed that the HL60 cells spontaneously convert the substrate for HRP conjugated with the secondary antibody, giving results that need to be analyzed with caution. To this end, the reaction for HL60 was stopped sooner but the results required additional confirmation with a different method anyway.

KG1 cells [8] = assay: library screening with the ELISA method on whole cells; format: binding; details: FIG. 1, background subtracted
Excerpt: The OD450-OD650 signal informs of the binding strength of the tested antibody to KG1 cells (more particularly: of the amount of the antibody bound to the antigen, being then recognized by a secondary HRP-conjugated antibody). Background signal, namely OD450-OD650 for the control with only the secondary antibody, was then subtracted from all measurements. The numbers and letters indicate the position on a 96-well plate.
as §2

HL60 cells [9] = assay: flow cytometry, sandwich labeling with scFv and FITC-conjugated secondary antibody; format: binding; details: HL60 + 6B + anti-c-myc-FITC, sandwich method
Method: (§3) As a confirmation of the ELISA assays, the flow cytometry analysis was conducted, wherein the cells were labeled with a FITC-conjugated antibody in an scFv format (direct labeling) or with an antibody in an scFv format and then with a FITC-conjugated secondary antibody recognizing the former (sandwich method).
(§4) Optimal dilution of the secondary antibody in the sandwich method is 1:100 or 1:50 (10^5 cells).

KG1 cells [10] = assay: as above; format: binding; details: KG1 + 6B + anti-c-myc-FITC, sandwich method
Method: as §3, §4

KG1-CtrA cells [11] = assay: flow cytometry, direct labeling with FITC-labeled scFv; format: binding; details: 1 μg 6B/FITC, 5×10^5 KG1-CtrA cells, FIG. 5
Method: as §1

C=C1/C(=C\C=C2/CCC[C@]3(C)[C@@H]([C@H](C)CCCC(C)(C)O)CC[C@@H]23)C[C@@H](O)C[C@@H]1O [calcitriol]
differentiation after exposure (KG1 cells [1]): lack of differentiation
expression of differentiation antigens CD11 b and CD14 (KG1-CtrA cells [2]): significantly increase expression
expression of CD14 and CD11b antigens (HL60 cells [3]): significantly increase expression
CD11 b and CD14 expression (KG1 cells [4]): do not alter

B1: 8F: scFv of SEQ ID NO: 2, negative control, same framework as 6B, differing only in hypervariable fragments (protein)
scFv: EVQLLESGGGLVQPGGSLRLSCAASGFTFSSYGMSWVRQAPGKGLEWVSWIDASGTRTQYADSVKGRFTISRDNSKNTLYLQMNSLRAEDTAVYYCAKLFRSFDYWGQGTLVTVSSGGGGSGGGGSGGGGSTDIQMTQSPSSLSASVGDRVTITCRASQSISSYLNWYQQKPGKAPKLLIYRASSLQSGVPSRFSGSGSGTDFTLTISSLQPEDFATYYCQQGQTLPITFGQGTKVEIKRAAA
modifications: antibody 8F
recognition of deltanoid-sensitive leukemia cells (HL60 cells [5]): not recognizing
recognition of deltanoid-resistant leukemia cells (KG1 cells [6]): not recognizing

B2: 6B: scFv of SEQ ID NO: 1, which specifically recognizes KG1 cells line, obtained by phage display (protein)
scFv: EVQLLESGGGLVQPGGSLRLSCAASGFTFSSYGMSWVRQAPGKGLEWVSTIRTAGRATEYADSVKGRFTISRDNSKNTLYLQMNSLRAEDTAVYYCAKSPQTFDYWGQGTLVTVSSGGGGSGGGGSGGGGSTDIQMTQSPSSLSASVGDRVTITCRASQSISSYLNWYQQKPGKAPKLLIYRASRLQSGVPSRFSGSGSGTDFTLTISSLQPEDFATYYCQQRLTIPITFGQGTKVEIKRAAA
modifications: antibody 6B
ELISA signal in comparison to control with non-specific scFv (HL60 cells [7]): no increased signal
OD450-OD650 signal (binding strength to KG1 cells) (KG1 cells [8]): clearly prominent
FITC+: GeoMean (HL60 cells [9]): 9.8
FITC+: mean (HL60 cells [9]): 10.7
FITC+: median (HL60 cells [9]): 8.9
FITC+: % Vis (KG1 cells [10]): 100.0%
FITC+: GeoMean (KG1 cells [10]): 28.1
FITC+: mean (KG1 cells [10]): 29.4
FITC+: median (KG1 cells [10]): 28.4
presence of the 6B-binding antigen (KG1-CtrA cells [11]): lost
